From the DeepSol protein solubility set

Test: soluble on expression in E. coli; label from the status in PepcDB or PDB records
With “MGHHHHHHSHMPVVIKEVPSSEAAEDVMVAAPLVCSGKVLEVQVVNQTSVHVDLGSQPKENEAEPSTASSVPLQDEQEPPAYDQAPEVTLQADIEVMSTVHISSVYNDVPVTEGVVYIEQLPEQIVIPFTDQVACLKENEQSKENEQSPRVSPKSVVEKTTSGMSKKSVESVKLAQLEENAKYSSVYMEAEATALLSDTSLKGQPEVPAQLLDAEGAIKIGSEKSLHLEVEITSIVSDNTGQEESGENSVPQEMEGKPVLSGEAAEAVHSGTSVKSSSGPFPPAPEGLTAPEIEPEGEATAE” the “soluble on expression in E. coli” value was “not soluble”. With “MGSDKIHHHHHHASHYLLLGGSGWDKIAIVNKNTKEIEWEHPLEKGWECNSVAVTPDRNILFSYSKGAKLITRDHEEVWNISAPEGCEMQTARVLPNGNYLLAWCGYPATIMEVNAKGEILSKTDFDTHIEQPHAQFRQVNKNKQGNYLVPLFATSEIREISPSGQLLKSVKVDGNPFSVAALDNGNYLVACGDAHCFIELNFETGDIVRKVNENDIEGAQLFFVAQLLPKRDGGLYICNWQGHDGEAAKGHYPQLIEINGAGKMVWDLNDNATFGMISSICPID” the “soluble on expression in E. coli” value was “not soluble”. For “VGKTVKREYCHEENDEELRKAVHDACYDKSYAIAASGNRNKHERQDAFDAIRDEFKAQFSEEELEEKGALIDRYYHDVEKEAMRRCILDEGKRLDGRKTTEIRP”, the “soluble on expression in E. coli” value was “not soluble”. For “MGMIVFVRFNSSYGFPVEVDSDTSILQLKEVVAKRQGVPADQLRVIFAGKELPNHLTVQNCDLEQQSIVHIVQRPRRR”, the “soluble on expression in E. coli” value was “soluble”. With “GQPMNVTLQDDTQTLQEVVVTALGMKRATKALGYAVTEIKSDELNSNVVNPVSALQGKVAGVEISAGDGGLFGSSKILIRGASTLGSNNQPIYVVDGVILDNAIKNGDADWAANDTDWGNELKNLNPDDFESVSVLKGAAATALYGSRGLNGAVVITTKSGKGKK” the “soluble on expression in E. coli” value was “not soluble”. With “MKNKSLLLAVAISATLLAGCKNGVNGNLIASSGMSTYKAATLSDADVKALSNNACKQMDSENQLAGSKSKYTKRLSKIAKALGNNIDGTPVSYKVYMTSDINAWAMANGCVRVYSGLMDLMTDNEIEGVLGHELGHVSLGHSRKAMQTAYATLAARDAISATSGVAAQLSQSQLGDLAEGVINSAFSRSQESDADDFSYDLLKKRGINTQGLVTAFDKFATMDAGHAKSLMDSHPASADRAQHMRDRIAEDKKLEHHHHHH” the “soluble on expression in E. coli” value was “not soluble”. With “MGSDKIHHHHHHMRKNRITEMLATASTIVLDGALATELEARGCDLTDPLWSAKVLVENPALIYQVHFDYFKAGAQCAITASYQATPQGFEARGYSEAESLALIAKSVQLAAQARDDYRRDNTQAGTLLVAGSVGPYGAYLADGSEYRGDYQLPQADMMAFHRPRIAALHEAGADLLACETLPSFAEIEALIALLAEFPQAQAWFSFTLRDSEHLSDGTPLRTVLERVNACSQVVAVGLNCIALEKVTPALMHLSSLTDLPLVVYPNSGEQYDAVTKTWSSAHDTACSLTAYLPEWQTAGARLIGGCCRTTPADIAGIARCCQQ” the “soluble on expression in E. coli” value was “not soluble”. For “MELARPRSNFQSDLDFCPDCGSVLPLPGIQDTVICSRCGFSIDVRDCEGKVVKTSVVFNKLGATIPLSVDEGPELQGPVIDRRCPRCGHEGMAYHTRQMRSADEGQTVFYTCINCKFQEKEDS”, the “soluble on expression in E. coli” value was “soluble”. In the case of “GAKQVDVHDPVMTREGDTWYLFSTGPGITIYSSKDRVNWRYSDRAFATEPTWAKRVSPSFDGHLWAPDIYQHKGLFYLYYSVSAFGKNTSAIGVTVNKTLNPASPDYRWEDKGIVIESVPQRDLWNAIAPAIIADDHGQVWMSFGSFWGGLKLFKLNDDLTRPAEPQEWHSIAKLERSVLMDDSQAGSAQIEAPFILRKGDYYYLFASWGLCCRKGDSTYHLVVGRSKQVTGPYLDKTGRDMNQGGGSLLIKGNKRWVGLGHNSAYTWDGKDYLVLHAYEAADNYLQKLKILNLHWDGEGWPQVDEKELDSYISQRLK”, the “soluble on expression in E. coli” value was “soluble”. With “MADTSCKLKPLCFRFVSTLKSPIAVITVTYSPGKYLASFLDSLPGATSRDTHVVMADNGSVDGVPEQAAASRSNVEFLSTGGNLGYGTAINIAARSLRARREAGEIDGEFFLVSNPDVVFDEDSIDQLLECAKRHPEAGAVGPLIREADGSAYPSARAVPTLANGIGHALLGAVWKSNPWSAAYRDDEDMDTERTAGWLSGSCLLLRWDAFDRVGGFDERYFMYMEDVDLGDRLVRAGFTNVFCPSAQIIHAKGHVAGKNPENMLPAHHESAYRFQADRLAKPWQAPIRLALRIGLKLRAGVAVGVSKMRTKASLEHHHHHH” the “soluble on expression in E. coli” value was “not soluble”.
